According to article doi:10.1101/2025.03.21.644525 (bioRxiv, 2025):

Target: T1, ARM domain of APC (residues 338-1010), untagged (Mus musculus, UniProt Q61315 338-1010)
T1 sequence (looked up): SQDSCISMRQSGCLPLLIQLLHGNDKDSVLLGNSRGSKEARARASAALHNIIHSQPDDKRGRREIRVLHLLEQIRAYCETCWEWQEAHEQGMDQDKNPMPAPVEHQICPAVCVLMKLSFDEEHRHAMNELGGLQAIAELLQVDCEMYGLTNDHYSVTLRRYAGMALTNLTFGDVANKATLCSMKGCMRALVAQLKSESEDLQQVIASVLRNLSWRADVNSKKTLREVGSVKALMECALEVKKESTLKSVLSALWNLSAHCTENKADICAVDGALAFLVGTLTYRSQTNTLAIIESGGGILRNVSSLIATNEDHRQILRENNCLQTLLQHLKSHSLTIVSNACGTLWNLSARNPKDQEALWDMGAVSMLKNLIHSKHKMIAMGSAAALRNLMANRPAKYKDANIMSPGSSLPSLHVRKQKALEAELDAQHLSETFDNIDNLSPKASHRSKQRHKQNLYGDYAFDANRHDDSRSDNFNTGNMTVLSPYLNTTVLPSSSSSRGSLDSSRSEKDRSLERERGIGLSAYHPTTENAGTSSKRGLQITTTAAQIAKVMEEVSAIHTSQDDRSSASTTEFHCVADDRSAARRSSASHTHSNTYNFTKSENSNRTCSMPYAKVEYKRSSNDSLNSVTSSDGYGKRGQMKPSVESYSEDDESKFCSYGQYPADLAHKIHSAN
Test: cryo-EM structure

B1: KIF3A C-terminal region (residues 481-701, ACT), N-terminal 6His tag (domain or fragment, Mus musculus, UniProt P28741 481-701, looked up)
chain: VIVGGVDLLAKAEEQEKLLEESNMELEERRRRAEQLRKELEEKEQERLDIEEKYTSLQEEAQGKTKKLKKVWTMLMAAKSEMADLQQEHQREIEGLLENIRQLSRELRLQMLIIDNFIPQDYQEMIENYVHWNEDIGEWQLKCVAYTGNNMRKQTPVPDKKERDPFEVDLSHVYLAYTEESLRQSLMKLERPRTSKGKARPKMGRRKRSAKPETVIDSLLQ
B1: binds.
